How the values were obtained:
PBP7, purified = biological target: T1, PBP7, purified (Escherichia coli, UniProt P0AFI5 26-310, where used as the labelled protein in MST: NT647 RED-NHS dye on amines); test: pull-down; Ni2+-NTA agarose beads; His-tagged protein with untagged or native ligand, overnight at 4°C; 10 mM HEPES/NaOH, 10 mM MgCl2, 150 mM NaCl, 0.05% Triton X-100, pH 7.5; washes with 30 mM imidazole; SDS-PAGE; details: both partners purified
T1 construct: PBP7 (DD-endopeptidase) of E. coli; source: E. coli BL21 (λDE3), purified (HisTrap HP, Superdex 200)
T1 sequence (looked up): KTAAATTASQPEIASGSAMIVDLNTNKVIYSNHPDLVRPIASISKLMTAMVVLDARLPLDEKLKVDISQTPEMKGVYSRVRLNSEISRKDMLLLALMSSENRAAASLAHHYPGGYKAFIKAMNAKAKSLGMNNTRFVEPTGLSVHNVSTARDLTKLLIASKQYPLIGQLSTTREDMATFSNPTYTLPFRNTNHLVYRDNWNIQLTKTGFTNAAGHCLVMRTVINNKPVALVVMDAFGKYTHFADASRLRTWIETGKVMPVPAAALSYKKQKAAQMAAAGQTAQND

[1] = biological target: the molecule itself; test: AUC; sedimentation velocity, 45,000 rpm, 20°C, 25 mM HEPES/NaOH, 150 mM NaCl, pH 7.5; NlpI 0.3-1.2 mg/ml; c(s) model
MepM = biological target: T2, MepM (Escherichia coli, UniProt P0AFS9 41-440); test: MST; titration: NT647-labelled protein against a two-fold serial dilution (16 steps) of unlabelled ligand; 25 mM HEPES/NaOH, 150 mM NaCl, 0.05% Triton X-100, pH 7.5; Monolith NT.115; apparent constants; for NlpI with itself: dimer to monomers; details: both partners purified
T2 construct: Peptidoglycan endopeptidase MepM of E. coli; source: purified as previously described in Moré et al (2019)
T2 sequence (looked up): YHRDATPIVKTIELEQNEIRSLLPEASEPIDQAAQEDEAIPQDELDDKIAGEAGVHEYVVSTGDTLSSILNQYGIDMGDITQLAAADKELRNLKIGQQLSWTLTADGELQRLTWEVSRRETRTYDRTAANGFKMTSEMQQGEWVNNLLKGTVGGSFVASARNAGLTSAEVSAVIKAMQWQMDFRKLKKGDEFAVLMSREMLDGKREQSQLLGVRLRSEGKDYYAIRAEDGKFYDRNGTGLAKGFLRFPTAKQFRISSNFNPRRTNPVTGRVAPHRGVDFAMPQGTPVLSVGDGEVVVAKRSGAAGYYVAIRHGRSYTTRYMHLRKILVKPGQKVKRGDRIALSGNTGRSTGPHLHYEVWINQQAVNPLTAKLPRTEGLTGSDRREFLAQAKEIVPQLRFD

[2] = biological target: the molecule itself; test: as above
PBP4, native, purified = biological target: T3, PBP4, native, purified (Escherichia coli, UniProt P24228 21-477, where used as the labelled protein in MST: NT647 RED-NHS dye on amines); test: as above; details: both partners purified
T3 construct: PBP4 (DD-endopeptidase) of E. coli, 'native PBP4' purified after Kishida et al (2006); Untagged ('native'); source: E. coli BL21 (λDE3), purified (HiTrap Q, hydroxyapatite, Superdex 200)
T3 sequence (P24228 21-477): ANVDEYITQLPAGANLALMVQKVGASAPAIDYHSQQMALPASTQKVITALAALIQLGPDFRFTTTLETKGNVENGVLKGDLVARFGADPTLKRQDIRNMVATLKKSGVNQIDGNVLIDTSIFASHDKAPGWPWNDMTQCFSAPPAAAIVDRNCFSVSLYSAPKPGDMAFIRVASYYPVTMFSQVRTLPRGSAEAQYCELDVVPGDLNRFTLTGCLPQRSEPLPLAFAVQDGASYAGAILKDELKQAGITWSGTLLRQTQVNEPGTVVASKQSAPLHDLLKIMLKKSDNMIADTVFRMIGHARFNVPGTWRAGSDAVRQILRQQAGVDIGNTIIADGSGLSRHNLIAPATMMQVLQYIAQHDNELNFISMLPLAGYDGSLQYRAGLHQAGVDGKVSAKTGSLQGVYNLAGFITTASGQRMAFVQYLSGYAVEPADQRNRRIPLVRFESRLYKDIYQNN

B1: NlpI, soluble version lacking its membrane anchor (natural protein, Escherichia coli)
chain: SNTSWRKSEVLAVPLQPTLQQEVILARMEQILASRALTDDERAQLLYERGVLYDSLGLRALARNDFSQALAIRPDMPEVFNYLGIYLTQAGNFDAAYEAFDSVLELDPTYNYAHLNRGIALYYGGRDKLAQDDLLAFYQDDPNDPFRSLWLYLAEQKLDEKQAKEVLKQHFEKSDKEQWGWNIVEFYLGNISEQTLMERLKADATDNTSLAEHLSETNFYLGKYYLSLGDLDSATALFKLAVANNVHNFVEHRYALLELSLLGQDQDDLAESDQQ
modifications: where used as fl-NlpI in MST: NT647 RED-NHS dye on amines
notes: Outer membrane lipoprotein NlpI of E. coli, soluble version lacking its membrane anchor; Homodimer by AUC; also called fl-NlpI (fluorescently labelled); His-NlpI; source: E. coli BL21 (λDE3), purified (HisTrap HP, Superdex 200)
With B1 the binding result (PBP7, purified) was “binds”, the “stoichiometry N” value [1] was 2 and the Kd (MepM) was 152 nM. The Kd [2] was 126 nM and the Kd (PBP4, native, purified) was 177 nM.

Reference: publication PMC7049810, “Outer membrane lipoprotein NlpI scaffolds peptidoglycan hydrolases within multi‐enzyme complexes in Escherichia coli” (The EMBO Journal, 2020)
